The values that follow come from the Human Domainome abundance scans (Beltran et al. 2025).

First the molecules themselves.
B1: POU domain, class 4, transcription factor 2, residues 256 to 327; numbered along this chain, Q12837 (parent)
chain: RDLEAFAERFKQRRIKLGVTQADVGSALANLKIPGVGSLSQSTICRFESLTLSHNNMIALKPILQAWLEEAE

± gives the uncertainty stated by the source.

This data set covers variants of B1. Description: abundance fitness (aPCA) (normalised: wild type 0, dead -1); higher = more abundant; growth selection in yeast, the domain comes from the species named. Particulars: Homo sapiens.
Consider RDLEAFAERFKQRRIKLGVTQADVGSALANLKIPGVGSLSQSTICRFESLTLSHNNMIADKPILQAWLEEAE [L60D], for which the abundance fitness is -0.614 ± 0.21.

In the case of RDLEAFAERFKQRRIKLGVTQADVGSALANLKIPGVGSLSQSTICRFESLTLSHNNMIAHKPILQAWLEEAE [L60H], the abundance fitness was -0.944 ± 0.47. The result for RDLEAFAERFKQRRIKLGVTQADVGSAAANLKIPGVGSLSQSTICRFESLTLSHNNMIALKPILQAWLEEAE [L28A] reads -0.654 ± 0.14; that for RDLEAFAERFKQRRIKLGVTQADVGSAIANLKIPGVGSLSQSTICRFESLTLSHNNMIALKPILQAWLEEAE [L28I], 0.072 ± 0.12; that for RDLEAFMERFKQRRIKLGVTQADVGSALANLKIPGVGSLSQSTICRFESLTLSHNNMIALKPILQAWLEEAE [A7M], -0.774 ± 0.3. Under RDLEAFVERFKQRRIKLGVTQADVGSALANLKIPGVGSLSQSTICRFESLTLSHNNMIALKPILQAWLEEAE [A7V] stands 0.08 ± 0.063. Under RDLEAFAERFKQRIIKLGVTQADVGSALANLKIPGVGSLSQSTICRFESLTLSHNNMIALKPILQAWLEEAE [R14I] stands -0.601 ± 0.31; under CDLEAFAERFKQRRIKLGVTQADVGSALANLKIPGVGSLSQSTICRFESLTLSHNNMIALKPILQAWLEEAE [R1C], -0.445 ± 0.14; under RDLEAFAERFKQRRIKLGVTQADVGSALANLKIPGVGSLSQSTICRFESLTLSHNNMIALKPILQGWLEEAE [A66G], -0.08 ± 0.055. Consider RDLEAFAERFKQRRIKLGVTQADVGSALANLKIPGVGSLSQSTICRFESLTLSHNNMIALKPILQIWLEEAE [A66I], for which the abundance fitness is -0.187 ± 0.2.

RDLEAFAERFKQRRIKLGVTQADVGSALANWKIPGVGSLSQSTICRFESLTLSHNNMIALKPILQAWLEEAE [L31W]: the abundance fitness amounted to 0.038 ± 0.095.

As for RDLCAFAERFKQRRIKLGVTQADVGSALANLKIPGVGSLSQSTICRFESLTLSHNNMIALKPILQAWLEEAE [E4C], the abundance fitness is -0.273 ± 0.12. Under RDLLAFAERFKQRRIKLGVTQADVGSALANLKIPGVGSLSQSTICRFESLTLSHNNMIALKPILQAWLEEAE [E4L] stands -0.165 ± 0.062. Under RDLEAFAERFKQRRIKLGVTQADVGSALANLKIPGVGSLSQSTICRFESLTLSHNNSIALKPILQAWLEEAE [M57S] stands -0.602 ± 0.081; under RDLEAFAERFKQRRIKLGVTQADVGSALANLKVPGVGSLSQSTICRFESLTLSHNNMIALKPILQAWLEEAE [I33V], 0.008 ± 0.055. Under RDLEAFAERFKQRRIKLGVTQADVGSALANLKQPGVGSLSQSTICRFESLTLSHNNMIALKPILQAWLEEAE [I33Q] stands -0.426 ± 0.17.

As for RDLEAFAERFKQRRIKLGVTQADVGSALANLKPPGVGSLSQSTICRFESLTLSHNNMIALKPILQAWLEEAE [I33P], the abundance fitness was -0.357 ± 0.1.

With RDLEAFAERFKQRRIKLGVTQADVGSALANLKHPGVGSLSQSTICRFESLTLSHNNMIALKPILQAWLEEAE [I33H], the abundance fitness was -0.438 ± 0.17. Under RDLEAFAERFKQRRIKLGVTQADVGSALANLKIPGVGSLSQSTICRFESLGLSHNNMIALKPILQAWLEEAE [T51G] stands -0.181 ± 0.058. With RDLEAFAERFKQRRIKLGVTQADVGSALANLKIPGVGSLSQSTICRFESLVLSHNNMIALKPILQAWLEEAE [T51V], the abundance fitness was -0.367 ± 0.079. The result for RDLEAFAERFKQRRIKLGATQADVGSALANLKIPGVGSLSQSTICRFESLTLSHNNMIALKPILQAWLEEAE [V19A] reads 0.018 ± 0.063.

As for RDLEAFAERFKQRRIKLGVTQADVGSALANLKIPGVGSLSQSTICRFESLTLSHNNMIALKPIMQAWLEEAE [L64M], the abundance fitness is -0.371 ± 0.095. Under RDLEAFAERFKQRRIKLGVTQADVGSALANLKIPGVGSLSQSTICRFESLTLSHNNMIALKPILQAWLEMAE [E70M] stands -0.332 ± 0.1; under RDLEAFAERFKQRRIKLGVTQADVGSALANLKIPGVGSLSQSTICRFESLTLSHNNMIALWPILQAWLEEAE [K61W], -0.125 ± 0.08. Under RDLEAFAERFKQRRIKLGVTQADVGSALANLKIPGVGSLSQSTICRFESLTLSHNNMIALIPILQAWLEEAE [K61I] stands -0.328 ± 0.099; under RDLEAFAERFKQRRIKLGVTQADVGSALANLKIPGVGSLSQSTACRFESLTLSHNNMIALKPILQAWLEEAE [I44A], -1 ± 0.17; under RDLEAFAERFKQRRIKLGVTQADVGSALANLKIPGVGSLSQSTYCRFESLTLSHNNMIALKPILQAWLEEAE [I44Y], -0.019 ± 0.39. The result for RDLEAFAERFKQRRIKLGVTQADVGSALANLKIPGVGSLSQSTLCRFESLTLSHNNMIALKPILQAWLEEAE [I44L] reads -0.392 ± 0.087. Take RDLEAFAERFKQRRIKLGVTQADVGSALANLKIPGVGSLSQSTICRFRSLTLSHNNMIALKPILQAWLEEAE [E48R]: the abundance fitness is -0.463 ± 0.071. Under RDLEAFAERFKQRRIKLGVTQADVGSALANLKIPGVGSLSQSTICRFGSLTLSHNNMIALKPILQAWLEEAE [E48G] stands -0.594 ± 0.12; under RDLEAFAERFKQRRIKLGVTQADVGSALANLKIPGVDSLSQSTICRFESLTLSHNNMIALKPILQAWLEEAE [G37D], -0.198 ± 0.18. The result for RDLEAFAERFKQRRIKLGVTQADVGSALANLKIPGVGSKSQSTICRFESLTLSHNNMIALKPILQAWLEEAE [L39K] reads -0.141 ± 0.16; that for RDLEAFAERFKQRRIKLGVTQADVGSALANLKIPGVGSGSQSTICRFESLTLSHNNMIALKPILQAWLEEAE [L39G], -0.499 ± 0.039; that for RDLEAFAERFKQRRIKLGVTQADVGSALANLKIPGVGSLSQSMICRFESLTLSHNNMIALKPILQAWLEEAE [T43M], -0.068 ± 0.16. Under RDLEAFAERFKQRRIKLGVCQADVGSALANLKIPGVGSLSQSTICRFESLTLSHNNMIALKPILQAWLEEAE [T20C] stands -0.338 ± 0.1; under RDLEAFAERFKQRRIKLGVVQADVGSALANLKIPGVGSLSQSTICRFESLTLSHNNMIALKPILQAWLEEAE [T20V], -0.964 ± 0.22. Take RDLEAFAERFKQRRIKLGVLQADVGSALANLKIPGVGSLSQSTICRFESLTLSHNNMIALKPILQAWLEEAE [T20L]: the abundance fitness is -0.607 ± 0.083. Under RDLEAFAERFKQRRIKLGVYQADVGSALANLKIPGVGSLSQSTICRFESLTLSHNNMIALKPILQAWLEEAE [T20Y] stands -1.05 ± 0.25.
